How the values were obtained:
Assay type in all cases: biochemical, Ceriporiopsis subvermispora
[1] = substrate: O=C(O)C(=O)O; assay: Oxalate oxidase kinetics, coupled horse radish peroxidase assay, OXOX-C
Source text: (§1) Sequences of both OXOX C and G alleles were published by Escutia et al., 2005 and were deposited with EMBL: OXOX-C partial genomic DNA, Acession No. AJ746414; OXOX-C partial cDNA, Acession No. AJ563659; OXOX-G genomic DNA, Acession No. AJ563660; OXOX-G cDNA, Acession No. AJ746412. See also, Escutia et al., Cloning and sequencing of two Ceriporiopsis subvermispora bicupin oxalate oxidase allelic isoforms: implications for the reaction specificity of oxalate oxidases and decarboxylases. (2005). Based on published sequence, mature proteins of OXOX C (SEQ ID NO: 21) and G (SEQ ID NO: 22) were synthesized and fused to N-terminal barley alpha amylase signal sequence (BAA ss; SEQ ID NO:3). The fungal OXOX coding sequence was synthesized with codon usage suitable for expression in soybean (FIG. 1A) and E. coli (FIG. 1B).
(§2) The E. coli expression system was based on the published protocol of Escutia et al. Escutia et al., Cloning and sequencing of two Ceriporiopsis subvermispora bicupin oxalate oxidase allelic isoforms: implications for the reaction specificity of oxalate oxidases and decarboxylases. (2005). The coding sequence for the mature OXOX enzyme was inserted in E. coli expression vector pET32 (Invitrogen) to include a 6× histidine tag at the C-terminus. The resulting expression plasmid was transformed into E. coli strain BL21Star pLysS (Invitrogen).
(§3) E. coli cultures were grown at 37° C. At optical density 0.4, arabinose was added to a concentration or 0.4%. After another hour of growth at 37° C., MnCl2 was added to 5 mM and IPTG to 1 mM. Cultures were then grown at 25° C. for 16 hours. Cells were harvested by centrifugation at 4000 rpm for 10 min. The supernatant was discarded and cell pellets were kept at −80° C. for at least one hour. Pellets were resuspended in total 40 ml of lysis buffer with 50 mM phosphate buffer pH7, 2 mg/ml protease inhibitor (sigma P-8465), 100 mM KCL, 1/1000 lysozyme, 1/2000 endonuclease, and incubated at 37° C. with shaking for one hour, followed by sonication. Cellular debris was removed by centrifugation and the clarified supernatant was poured into a new tube. Nickel resin (Qiagen) was added. After a short period of incubation, the slurry was poured onto a column and washed with buffer. Purified OXOX protein was eluted from the resin in 50 mM succinate pH 5, 100 mM KCl. The E. coli expression procedure was scalable allowing large scale protein production for kinetic analysis as well as small scale production for high throughput screening of libraries.
(§4) Oxalate oxidase enzymatic activity was determined in a coupled reaction. Oxalate oxidase converts oxalic acid to carbon dioxide and hydrogen peroxide. In the presence of horse radish peroxidase, hydrogen peroxide reacts with 3-methyl-2-benzothiazolinone hydrazone (MBTH) and N,N-dimethylaniline (DMA) to form indamine dye, which can be detected spectrophotmetrically or colorimetrically as described by Laker, M. F., Hoffman, A. F., and Meeuse, J. D. (1980) Clinical Chemistry 26, 827-830. The coupled reaction was used for characterization of oxalate oxidase kinetic properties as well as in a screening procedure to identify oxalate oxidase variants with improved enzymatic properties.
(§5) More modest improvements in Km and Kcat were observed under lower pH conditions. Coupled reaction was preformed as described in Example 3. Enzyme kinetic parameters were determined by standard methods as described in Segel (1976) Biochemical calculations, 2nd Edition. John Wiley & Sons, London, New York, Sydney, Toronto.

[2] = substrate: O=C(O)C(=O)O; assay: Oxalate oxidase kinetics, coupled horse radish peroxidase assay, OXOX-G
Source text: as §1, §2, §3, §4, §5

[3] = substrate: O=C(O)C(=O)O; assay: Oxalate oxidase kinetics, coupled horse radish peroxidase assay, FG23
Source text: as §2, §3, §4
DNA shuffling was performed as described elsewhere herein. A polymerase chain reaction product corresponding to the OXOX-C coding sequence was fragmented by limited nuclease treatment. Synthetic oligonucleotides encoding sequence diversity from oxalate decarboxylase sequences found in public databases were added. A polymerase chain reaction procedure was performed on the mixture to yield a library of full length OXOX-C coding sequences with additional diversity incorporated. The resulting library was inserted in expression vector pET32, E. coli cells were transformed and protein was expressed, as described in Example 2. A tiered screening strategy was devised based on the OXOX protein expression and enzymatic activity determination procedures described in Examples 2 and 3, respectively. A high throughput screening process based on colorimetric determination of OXOX activity was utilized to identify individual E. coli strains harboring active OXOX variants. These OXOX-active strains were reassayed using quantitative spectrophotometric determination of OXOX activity. […] Three rounds of this iterative screening and selection procedure were completed, and OXOX variants with up to 8-fold improved activity were identified
as §5

B1: Ceriporiopsis subvermispora oxalate oxidase OXOX-C, SEQ ID NO: 18 (Gelatoporia subvermispora B) (protein)
chain: RPTENGPQIVIANNAGTYLPVLRGSGTKSSSAADATQTVPFASDDPNPRLWDIDTKNLTKVTPERGQLGAKILGPDNLPIDLQNADTLAPPTTDSGSIPNPKWPFALSHNTLYSGGWVRIQNDEVMPIAKAMAGVNMRLEAGAIRELHWHNTPEWAYILKGTTQITAVDQNGRNYLANVGPGDLWYFPEGMPHSLQGTDANNEGSEFLLIFPDGTFDSSNQFMITDWLAHTPKDVIAKNFGVDISEFDRLPSHDLYIFPGVAPPLDAKAPEDPQGTIPLPYSFEFSKVKPTQYAGGTVKIADTRTFPIAKTISVAEVTVEPGAMRELHWHPTEDEWTFFIEGQARVTIFAGQSNAQTYDYQGGDIAYIPTAWGHYVENSGNTTLRFLEIFNSPLFEDVSLAQWIANTPPAIVKATLQLSDEVINTLNKSKAFVVG
B1 showed a Km ([1]; other: pH 3.8, pH 3.8) of 350 µM, a kcat ([1]; other: pH 3.8, pH 3.8) of 5.45 s⁻¹ and a Km ([1]; other: pH 4.8, pH 4.8) of 1240 µM. It also gave a kcat ([1]; other: pH 4.8, pH 4.8) of 2.74 s⁻¹, a Km ([1]; other: pH 5.8, pH 5.8) of 5950 µM and a kcat ([1]; other: pH 5.8, pH 5.8) of 0.91 s⁻¹.

B2: Ceriporiopsis subvermispora oxalate oxidase OXOX-G, SEQ ID NO: 19 (Gelatoporia subvermispora) (protein)
chain: RPTGNDVFYLPRAVAVSSAGASSPASLSSGTESSSAAEPTETVPFASDDPNPRLWNIDTQDLSVVAPERGPLGAKIIGPDNLPLDIQNADTLAPPTTDSGSIPNAKWPFALSHNTLYTGGWVRIQNNEVLPIAKAMAGVNMRLEAGTIRELHWHNTPEWAYILKGTTQITAVDENGKNYLANVGPGDLWYFPEGMPHSLQGTNASDEGSEFLLIFPDGTFDASNQFMITDWLAHTPKDVIAKNFGVDISEFDRLPSHDLYIFPGVAPPLDATAPEDPQGTIPLPYSFEFSKVVPTQYAGGTVKIADTRTFPISKTISVAEITVEPGAMRELHWHPTEDEWTFFIEGQARVTLFAGESNAQTYDYQGGDIAYIPTAYGHYVENSGNTTLRFLEIFNSPLFQDVSLTQWLANTPRAIVKATLQLSDNVIDSLNKSKAFVVASD
B2 was tested, and the Km ([2]; other: pH 3.8, pH 3.8) was 400 µM, the kcat ([2]; other: pH 3.8, pH 3.8) was 4.80 s⁻¹ and the Km ([2]; other: pH 4.8, pH 4.8) was 1370 µM. For the same protein, the kcat ([2]; other: pH 4.8, pH 4.8) was 2.56 s⁻¹, the Km ([2]; other: pH 5.8, pH 5.8) was 6140 µM and the kcat ([2]; other: pH 5.8, pH 5.8) was 0.82 s⁻¹.

B3: Ceriporiopsis subvermispora oxalate oxidase OXOX-C variant FG23 (3-FG23), … (protein)
chain: RPTENGPQIVIANNAGTYLPVLRGSGTKSSSAADATQTVPFASDDPNPRLWNIDTQDLSVVAPERGPLGAKILGPDNLPIDLQNADTLAPPTTDSGSVPNPKWPFALSHNTLYSGGWVRIQNNEVLPIAKAMAGVNMRLEAGAIRELHWHNTPEWAYILKGTTQITAVDQNGRNYLANVSPGDLWYFPEGIPHSLQGTDANNEGSEFLLIFPDGTFDASNQFMITDWLAHTPKDVIAKNFGVDISEFDRLPSHDLYIFPGVAPPLDAKAPEDPQGTVPLPYSFEFSKVKPTQYAGGTVKIADTRTFPIAKTISVAEVTVEPGAMRELHWHPTEDEWTFFIEGQARVTIFAGQSNAQTYDYQGGDIAYIPTAYGHYVENSGNTQLRFLEIFNSPLFEDVSLAQWIANTPPAIVKATLQLSDEVIDSLNKQKASVVG
Work on B3 yielded a Km ([3]; other: pH 3.8, pH 3.8) of 380 µM, a kcat ([3]; other: pH 3.8, pH 3.8) of 7.06 s⁻¹ and a Km ([3]; other: pH 4.8, pH 4.8) of 1210 µM. The kcat ([3]; other: pH 4.8, pH 4.8) was 4.62 s⁻¹, the Km ([3]; other: pH 5.8, pH 5.8) was 5250 µM and the kcat ([3]; other: pH 5.8, pH 5.8) was 2.61 s⁻¹.
